{"source": "patent US7888291B2", "about": "“Substrates and assays for β-secretase” (Elan Pharmaceuticals, Inc., priority 2000, dated 2011)", "assay_type_in_all_cases": "biochemical", "key": {"Hu-Asp2 [1]": {"target": "T1, Hu-Asp2 (Homo sapiens, UniProt P56817)", "T1 construct": "made in house; host or cells: High Five insect cells", "T1 sequence (P56817 46-501)": "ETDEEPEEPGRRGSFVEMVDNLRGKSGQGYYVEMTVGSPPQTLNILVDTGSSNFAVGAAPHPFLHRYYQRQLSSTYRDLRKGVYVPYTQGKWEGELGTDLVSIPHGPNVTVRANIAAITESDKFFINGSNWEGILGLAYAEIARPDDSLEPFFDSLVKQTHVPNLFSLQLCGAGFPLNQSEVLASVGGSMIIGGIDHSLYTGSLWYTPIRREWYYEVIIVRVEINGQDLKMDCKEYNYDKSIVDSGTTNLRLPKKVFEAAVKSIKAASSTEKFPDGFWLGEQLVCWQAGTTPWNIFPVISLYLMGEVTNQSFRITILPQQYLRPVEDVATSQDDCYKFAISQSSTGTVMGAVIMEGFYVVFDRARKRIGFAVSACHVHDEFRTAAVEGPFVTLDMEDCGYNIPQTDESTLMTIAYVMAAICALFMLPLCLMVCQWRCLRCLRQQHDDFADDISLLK", "assay": "Hu-Asp2 peptide substrate cleavage assay (HPLC quantitation of cleavage products)", "conditions": "for activity / rate of hydrolysis by Asp2 over wild type peptide (SEQ ID NO:20): Tables 3 and 4"}, "Hu-Asp2 [2]": {"target": "T1, Hu-Asp2", "assay": "Hu-Asp2 peptide substrate cleavage assay (HPLC quantitation of cleavage products)", "design": "key to Activity: Those substrates that were not cleaved by the Hu-Asp2 are indicated by a “−” sign; substrates that produced activity are indicated by “+” signs in which the greater the activity, the more + signs are provided; ++: substrates that produced activity are indicated by “+” signs in which the greater the activity, the more + signs are provided; ++++: substrates that produced activity are indicated by “+” signs in which the greater the activity, the more + signs are provided", "conditions": "for Activity: 200 μM test substrate, 210 nM Hu-Asp2 enzyme, pH 4.5, 37° C., 3 hours", "experimental": "The peptides listed in Table 2 were designed, synthesized, and tested for activity as substrates for Hu-Asp2. 200 μM of each test substrate was incubated with 210 nM Hu-Asp2 enzyme at pH 4.5 at 37° C. for 3 hours. Of course it should be understood that these are merely exemplary assay conditions, and those of skill in the art will be able to vary these conditions and yet still provide appropriate Hu-Asp2 activity. For example, it is envisioned that the assays may be conducted at a pH range of from between about 4.0 to about 7.0. The amount of enzyme added to a given reaction mixture may also be varied and those of skill in the art will be able to perform assays defining the optimal enzyme concentrations necessary for a given assay, as such 150 nm; 200 nm; 250 nm; 300 nm or more or less enzyme may be added. Substrate concentration in those also may be varied such that an assay may use 100, 150 μM, 200 μM, 250 μM, 300 μM, 350 μM or more or less of any given; substrate. It may be that one substrate produces an optimum activity at one concentration whereas another substrate is needed to be present at a different concentration to produce an optimum cleavage rate. However, such optimizations of enzyme assay conditions is well within the skill of those in the art and will not require undue experimentation.\nIn an exemplary assay to determine the cleavage of the substrates of the present invention, Asp2 was prepared from High Five™ insect cells. Generally, the assasy are run in solution at acidic pH (4.0 to 5.0), at 25-37° C. in the presence of nM or sub-nanomolar enzyme. After a suitable period of incubation the reaction is stopped at a desired time by addition of 4% trifluoracetic acid (TFA). Substrates and products are separated using reverse phase HPLC. The disappearance of the substrates and the appearance of the products are monitored by continuous measurement of the absorbance of the effluent at […]. Furthermore, if the peptide comprises a tryptophan residue, the monitoring may additionally or alternatively involve continuous monitoring of fluorescence of tryptophan fluorescence (excitation at 280 nm, emission at […]) of the effluent.\nIn a typical assay, 210 nM enzyme and 200 μM substrate were incubated in 0.2 M sodium acetate at pH 4.5 in 100 μl volume at 37° C. for 1 to 3 hours. The assay was stopped by the addition of 50 μl 4% TFA to lower the pH below the active range of the enzyme. Subsequently, 100 μl of this mixture was injected into a Hewlett Packard Model 1090 HPLC equipped with a Vydac column (4.6 mm i.d.×150 mm, 5 μm) pre-equilibrated with 95% A (0.15% TFA in water), 5% B (0.15% TFA in acetonitrile). The constituents were then eluted from the column with the following linear gradients: 0-15 min: 5-50% B; 15-17 min: 50-100% B; 17-20 min: 100-5% B; 20-22 min: 5% B). The cleavage products were then quantitated using an enhanced integrator. […]"}, "Hu-Asp": {"target": "Hu-Asp (Homo sapiens, UniProt P56817)", "sequence (P56817 46-501)": "as above", "assay": "Hu-Asp cleavage assay variation for substrates of SEQ ID NO:190 and 191 (Vmax, Km, pH, ionic strength, DMSO)", "design": "made in house; host or cells: High Five insect cells", "conditions": "100 mM NaOAc/HOAc, pH 4.5 (stated for SEQ ID NO:190 and 191)", "experimental": "In the substrates SEISY-EVEFRWKK (SEQ ID NO:190) and GLTNIKTEEISEISY-EVEFRWKK (SEQ ID NO:191), the 10 N-terminal amino acids of peptide SEISY-EVEFRWKK (SEQ ID NO:190) are identical to those of peptide SEISY-EVEFR (SEQ ID NO:152). The difference between the two peptide is the presence of a tryptophan and two lysines in the peptide of SEQ ID NO:190. […] Hu-Asp activity was tested towards SEISY-EVEFRWKK (SEQ ID NO:190) and GLTNIKTEEISEISY-EVEFRWKK (SEQ ID NO:191). […] The activity difference between the two peptides was particularly dramatic in the pH range 4.0-4.6. Specifically, it was 6.3-4.8 times higher for the peptide of SEQ ID NO:191. […] Both peptides were inhibited by increasing concentrations of DMSO. […] As expected, the N-terminus elongation increases activity. […] The development of the substrates of SEQ ID NO:190 and SEQ ID NO:191 is of great value in Hu-Asp inhibition studies and in studies concerning recombinant Hu-Asp refolding from E. coli inclusion bodies.\nIn a variation of the above assay for substrates of SEQ ID NO:190 or its N-terminally extended version depicted in SEQ ID NO:191), the substrates are incubated with the enzyme to a final reaction solution volume of 200 μl (although reaction mixtures of 50-100 μl also were used) composed of 5-50 μM peptide substrate, 1-10 nM enzyme, 0.1. M sodium acetate buffer at pH 4 to 5. […]"}, "[3]": {"conditions": "Table 3, 200 nM enzyme, 200 μM substrate, 300 mM Na-acetate, 4% DMSO, pH 4.5, 37° C., 4 hr, APP-Sw = 100"}}, "note": "“Also recorded” adds a separate entry of the source. Non-standard residues stand in square brackets, D forms with d. No end group written: not given here. Nle = CCCC[C@H](N)C(=O)O; SO3‑ = not defined here", "data": [{"substance": "Biotin-KVEANY-EVEGERC(oregon green)KK", "values": [{"measurement": "Vmax and Km compared with a previous biotinylated fluorescent substrate derived from the Swedish Mutant peptide", "setting": "Hu-Asp2 [1]", "value": "at least twice better; also recorded: at least double"}, {"measurement": "cleavage after 15 minutes", "setting": "Hu-Asp2 [1]; 200 mM sodium acetate, pH 4.5, 10 μM substrate, 50 nM enzyme, 37° C., 15 minutes", "value": 20, "unit": "%"}, {"measurement": "cleavage after 30 minutes", "setting": "Hu-Asp2 [1]; 200 mM sodium acetate, pH 4.5, 10 μM substrate, 50 nM enzyme, 37° C., 30 minutes", "value": 37, "unit": "%"}, {"measurement": "cleavage after 60 minutes", "setting": "Hu-Asp2 [1]; 200 mM sodium acetate, pH 4.5, 10 μM substrate, 50 nM enzyme, 37° C., 60 minutes", "value": 57, "unit": "%"}, {"measurement": "cleavage after 120 minutes", "setting": "Hu-Asp2 [1]; 200 mM sodium acetate, pH 4.5, 10 μM substrate, 50 nM enzyme, 37° C., 120 minutes", "value": 82, "unit": "%"}, {"measurement": "cleavage site", "setting": "Hu-Asp2 [2]", "value": "between Tyr and Glu only"}]}, {"substance": "GLTNIKTEEISEISYEVEFRWKK [SEQ ID NO:191, GLTNIKTEEISEISY-EVEFRWKK]", "values": [{"measurement": "Km", "setting": "Hu-Asp", "value": 43.1, "unit": "µM"}]}, {"substance": "KTEEISEVSY-EVEFR (KTEEISEVSYEVEFR)", "values": [{"measurement": "rate of cleavage / activity over SEVSY-EVEFR (SEQ ID NO:141)", "setting": "Hu-Asp2 [1]", "value": 3.6, "unit": "fold"}, {"measurement": "Cleavage Activity", "setting": "Hu-Asp2 [1]; Table 5, 2 nM enzyme, 50 μM substrate, 25 mM Sodium acetate, pH 4.4, 37° C., 2 hr", "value": 0.58, "unit": "µmol/min/mg"}, {"measurement": "Relative rate of Cleavage", "setting": "Hu-Asp2 [1]; Table 5, 2 nM enzyme, 50 μM substrate, 25 mM Sodium acetate, pH 4.4, 37° C., 2 hr, SEQ ID NO:141 = 100", "value": 360}]}, {"substance": "KTINL-↓-EVEPS (KTINLEVEPS) [Peptide 2]", "values": [{"measurement": "Relative rate of Cleavage", "setting": "Hu-Asp2 [1]; [3]", "value": 92.0}, {"measurement": "activity as substrate of Hu-Asp2 (in words)", "setting": "Hu-Asp2 [2]", "value": "activity similar to that of the Swedish mutant"}]}, {"substance": "KTINnle-↓-DVDPS (KTIN[Nle]DVDPS) [Peptide 5]", "values": [{"measurement": "reduction of activity compared with peptide #3 (SEQ ID NO:134)", "setting": "Hu-Asp2 [1]; Table 3", "value": "about 10 fold"}, {"measurement": "Relative rate of Cleavage", "setting": "Hu-Asp2 [1]; [3]", "value": 12.2}]}, {"substance": "KTINnle-↓-EVDPS (KTIN[Nle]EVDPS) [Peptide 4]", "values": [{"measurement": "Relative rate of Cleavage", "setting": "Hu-Asp2 [1]; [3]", "value": 93.6}, {"measurement": "activity as substrate of Hu-Asp2 (in words)", "setting": "Hu-Asp2 [2]", "value": "very well tolerated"}]}, {"substance": "KTINnle-↓-EVEPS (KTIN[Nle]EVEPS) [Peptide 3]", "values": [{"measurement": "Relative rate of Cleavage", "setting": "Hu-Asp2 [1]; [3]", "value": 92.6}, {"measurement": "activity as substrate of Hu-Asp2 (in words)", "setting": "Hu-Asp2 [2]", "value": "activity similar to that of the Swedish mutation"}]}, {"substance": "KTISL- ↓-DVDPS (KTISLDVDPS) [Peptide 7]", "values": [{"measurement": "Relative rate of Cleavage", "setting": "Hu-Asp2 [1]; [3]", "value": 20.5}, {"measurement": "activity as substrate of Hu-Asp2 (in words)", "setting": "Hu-Asp2 [2]", "value": "activity dropped substantially"}]}, {"substance": "KTISL- ↓-DVEPS (KTISLDVEPS) [Peptide 6]", "values": [{"measurement": "activity as percentage of the Swedish mutation peptide (SEQ ID NO:19)", "setting": "Hu-Asp2 [1]; Table 3", "value": 69, "unit": "%"}, {"measurement": "Relative rate of Cleavage", "setting": "Hu-Asp2 [1]; [3]", "value": 69.0}, {"measurement": "activity / rate of hydrolysis by Asp2 over wild type peptide (SEQ ID NO:20)", "setting": "Hu-Asp2 [1]", "value": "about 35 fold"}]}, {"substance": "KTITL-↓-EVEPS (KTITLEVEPS) [Ubiquitin (Pep 1)]", "values": [{"measurement": "activity as percentage of the Swedish mutation peptide (SEQ ID NO:19)", "setting": "Hu-Asp2 [1]; Table 3", "value": "about 13%"}, {"measurement": "Relative rate of Cleavage", "setting": "Hu-Asp2 [1]; [3]", "value": 13.1}, {"measurement": "activity / rate of hydrolysis by Asp2 over wild type peptide (SEQ ID NO:20)", "setting": "Hu-Asp2 [1]", "value": "six times better than wild type peptide"}]}, {"substance": "KVEALY-AVEGERKK (KVEALYAVEGERKK)", "values": [{"measurement": "Activity", "setting": "Hu-Asp2 [2]", "value": "+"}]}, {"substance": "KVEALY-LV(SO3-)GER (KVEALYLV[SO3‑]GER; reading uncertain; also: sulfonated residue, parent residue not given here, printed as KVEALY-LV(SO3-)GER)", "values": [{"measurement": "Activity", "setting": "Hu-Asp2 [2]", "value": "−"}]}, {"substance": "KVEANL-AVEGERKK (KVEANLAVEGERKK)", "values": [{"measurement": "Activity", "setting": "Hu-Asp2 [2]", "value": "+"}]}, {"substance": "KVEANY-AVEGERKK (KVEANYAVEGERKK)", "values": [{"measurement": "Activity", "setting": "Hu-Asp2 [2]", "value": "++++"}]}, {"substance": "KVEANY-DVEGERKK (KVEANYDVEGERKK)", "values": [{"measurement": "Activity", "setting": "Hu-Asp2 [2]", "value": "+"}]}, {"substance": "KVEANY-EVEGERCKK (KVEANYEVEGERCKK)", "values": [{"measurement": "activity as substrate of Hu-Asp2 (in words)", "setting": "Hu-Asp2 [2]", "value": "good substrate for Hu-Asp2"}]}]}
